Results as given in the supplement of paper PMC9112550, “Optimization of the antimicrobial peptide Bac7 by deep mutational scanning” (BMC Biology, 2022).

Test system: Escherichia coli TOP10
Assay: shrunken log2 fold change of peptide-encoding DNA abundance (4.5 h post-induction vs induction); higher = less antimicrobial activity (less host growth inhibition)
Conditions: time post-induction: 4.5 h; library: site-saturation at positions 5, 18, 19, 20
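Also: peptides expressed intracellularly from a pBAD plasmid library in pooled LB shake-flask culture, induced with 0.3% L-arabinose, DNA abundance read by NGS, three biological replicates, DESeq2 with apeglm shrinkage.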

Sequence	shrunken log2 fold change
RRIRSRPPRLPRPRPRPFNRPRP	-0.363
RRIRSRPPRLPRPRPRPFQKPRP	-0.00295
RRIRSRPPRLPRPRPRPFQRPRP	0.101
RRIRSRPPRLPRPRPRPFRVPRP	0.166
RRIRSRPPRLPRPRPRPFTGPRP	-0.261
RRIRSRPPRLPRPRPRPFTKPRP	-0.202
RRIRSRPPRLPRPRPRPFTQPRP	-0.403
RRIRSRPPRLPRPRPRPFTRPRP	0.0337
RRIRSRPPRLPRPRPRPFTSPRP	0.0532
RRIRSRPPRLPRPRPRPFTVPRP	-0.0157
RRIRSRPPRLPRPRPRPFTWPRP	-0.24
RRIRSRPPRLPRPRPRPGCLPRP	0.0602
RRIRSRPPRLPRPRPRPGDRPRP	-0.267
RRIRSRPPRLPRPRPRPGDVPRP	0.204
RRIRSRPPRLPRPRPRPGENPRP	0.894
RRIRSRPPRLPRPRPRPGGEPRP	0.585
RRIRSRPPRLPRPRPRPGHEPRP	0.101
RRIRSRPPRLPRPRPRPGHPPRP	0.0456
RRIRSRPPRLPRPRPRPGIGPRP	1.62
RRIRSRPPRLPRPRPRPGIIPRP	-0.454
RRIRSRPPRLPRPRPRPGMQPRP	-0.394
RRIRSRPPRLPRPRPRPGMYPRP	0.0605
RRIRSRPPRLPRPRPRPGNFPRP	0.00825
RRIRSRPPRLPRPRPRPGNTPRP	-0.472
RRIRSRPPRLPRPRPRPGNWPRP	-0.0906

Sequence	shrunken log2 fold change
RRIRSRPPRLPRPRPRPGPCPRP	0.0781
RRIRSRPPRLPRPRPRPGPFPRP	0.00218
RRIRSRPPRLPRPRPRPGPRPRP	0.659
RRIRSRPPRLPRPRPRPGQCPRP	0.0202
RRIRSRPPRLPRPRPRPGRCPRP	0.247
RRIRSRPPRLPRPRPRPGWSPRP	0.334
RRIRSRPPRLPRPRPRPGYFPRP	-0.335
RRIRSRPPRLPRPRPRPGYNPRP	-0.846
RRIRSRPPRLPRPRPRPHAFPRP	-1.44
RRIRSRPPRLPRPRPRPHCHPRP	-0.783
RRIRSRPPRLPRPRPRPHDQPRP	0.276
RRIRSRPPRLPRPRPRPHEIPRP	-0.346
RRIRSRPPRLPRPRPRPHEMPRP	0.0637
RRIRSRPPRLPRPRPRPHFIPRP	-0.344
RRIRSRPPRLPRPRPRPHFWPRP	0.0758
RRIRSRPPRLPRPRPRPHGMPRP	-0.21
RRIRSRPPRLPRPRPRPHKRPRP	0.0245
RRIRSRPPRLPRPRPRPHKYPRP	-0.377
RRIRSRPPRLPRPRPRPHMAPRP	-0.361
RRIRSRPPRLPRPRPRPHMEPRP	-0.376
RRIRSRPPRLPRPRPRPHPNPRP	-0.239
RRIRSRPPRLPRPRPRPHPYPRP	-0.807
RRIRSRPPRLPRPRPRPHQIPRP	0.0975
RRIRSRPPRLPRPRPRPHQVPRP	-0.0813
RRIRSRPPRLPRPRPRPHRQPRP	0.114

Sequence	shrunken log2 fold change
RRIRSRPPRLPRPRPRPHSIPRP	-0.248
RRIRSRPPRLPRPRPRPHTDPRP	-0.216
RRIRSRPPRLPRPRPRPHTNPRP	-0.335
RRIRSRPPRLPRPRPRPHVIPRP	-0.6
RRIRSRPPRLPRPRPRPHVWPRP	0.0587
RRIRSRPPRLPRPRPRPHYHPRP	-0.696
RRIRSRPPRLPRPRPRPHYLPRP	-0.403
RRIRSRPPRLPRPRPRPHYWPRP	-0.519
RRIRSRPPRLPRPRPRPIAIPRP	-0.0732
RRIRSRPPRLPRPRPRPIDPPRP	0.017
RRIRSRPPRLPRPRPRPIDSPRP	-0.0241
RRIRSRPPRLPRPRPRPIFVPRP	0.0197
RRIRSRPPRLPRPRPRPIHQPRP	-0.114
RRIRSRPPRLPRPRPRPIICPRP	-0.258
RRIRSRPPRLPRPRPRPIKPPRP	0.0213
RRIRSRPPRLPRPRPRPILFPRP	-0.445
RRIRSRPPRLPRPRPRPILHPRP	-0.159
RRIRSRPPRLPRPRPRPILIPRP	-0.384
RRIRSRPPRLPRPRPRPIMAPRP	0.163
RRIRSRPPRLPRPRPRPIMIPRP	-0.426
RRIRSRPPRLPRPRPRPINCPRP	-0.159
RRIRSRPPRLPRPRPRPINDPRP	-0.113
RRIRSRPPRLPRPRPRPINVPRP	-0.418
RRIRSRPPRLPRPRPRPIQTPRP	-0.0822
RRIRSRPPRLPRPRPRPIQWPRP	0.268

Sequence	shrunken log2 fold change
RRIRSRPPRLPRPRPRPIRSPRP	0.0127
RRIRSRPPRLPRPRPRPIWAPRP	-0.133
RRIRSRPPRLPRPRPRPKDDPRP	0.0557
RRIRSRPPRLPRPRPRPKEVPRP	-0.00238
RRIRSRPPRLPRPRPRPKFFPRP	0.113
RRIRSRPPRLPRPRPRPKFNPRP	-0.573
RRIRSRPPRLPRPRPRPKFWPRP	0.759
RRIRSRPPRLPRPRPRPKHEPRP	0.076
RRIRSRPPRLPRPRPRPKIRPRP	-0.177
RRIRSRPPRLPRPRPRPKLMPRP	-0.125
RRIRSRPPRLPRPRPRPKMNPRP	-0.163
RRIRSRPPRLPRPRPRPKMYPRP	-0.0737
RRIRSRPPRLPRPRPRPKQDPRP	0.0172
RRIRSRPPRLPRPRPRPKQPPRP	0.0683
RRIRSRPPRLPRPRPRPKSGPRP	0.0485
RRIRSRPPRLPRPRPRPKVNPRP	-0.333
RRIRSRPPRLPRPRPRPKWDPRP	0.172
RRIRSRPPRLPRPRPRPKWWPRP	0.0275
RRIRSRPPRLPRPRPRPKYQPRP	-0.157
RRIRSRPPRLPRPRPRPKYWPRP	-0.166
RRIRSRPPRLPRPRPRPLAKPRP	0.358
RRIRSRPPRLPRPRPRPLCVPRP	-0.143
RRIRSRPPRLPRPRPRPLGMPRP	-0.243
RRIRSRPPRLPRPRPRPLHGPRP	0.0705
RRIRSRPPRLPRPRPRPLHHPRP	-0.465

Sequence	shrunken log2 fold change
RRIRSRPPRLPRPRPRPLKHPRP	-0.39
RRIRSRPPRLPRPRPRPLMTPRP	0.653
RRIRSRPPRLPRPRPRPLNKPRP	-0.343
RRIRSRPPRLPRPRPRPLNSPRP	-0.327
RRIRSRPPRLPRPRPRPLPGPRP	0.0761
RRIRSRPPRLPRPRPRPLQLPRP	-0.456
RRIRSRPPRLPRPRPRPLRKPRP	0.383
RRIRSRPPRLPRPRPRPLRLPRP	0.54
RRIRSRPPRLPRPRPRPLRWPRP	0.776
RRIRSRPPRLPRPRPRPLSAPRP	0.234
RRIRSRPPRLPRPRPRPLSCPRP	0.0284
RRIRSRPPRLPRPRPRPLSRPRP	0.0301
RRIRSRPPRLPRPRPRPLTFPRP	0.182
RRIRSRPPRLPRPRPRPLVCPRP	0.0734
RRIRSRPPRLPRPRPRPLVFPRP	-0.0421
RRIRSRPPRLPRPRPRPLWCPRP	0.148
RRIRSRPPRLPRPRPRPMAWPRP	-0.00175
RRIRSRPPRLPRPRPRPMAYPRP	-0.0939
RRIRSRPPRLPRPRPRPMCHPRP	-0.576
RRIRSRPPRLPRPRPRPMCSPRP	-0.0814
RRIRSRPPRLPRPRPRPMDAPRP	-0.0809
RRIRSRPPRLPRPRPRPMEFPRP	0.00489
RRIRSRPPRLPRPRPRPMFNPRP	-0.258
RRIRSRPPRLPRPRPRPMFVPRP	-0.0773
RRIRSRPPRLPRPRPRPMGHPRP	-0.256

Sequence	shrunken log2 fold change
RRIRSRPPRLPRPRPRPMHRPRP	0.0682
RRIRSRPPRLPRPRPRPMISPRP	-0.453
RRIRSRPPRLPRPRPRPMKCPRP	0.235
RRIRSRPPRLPRPRPRPMKEPRP	-0.338
RRIRSRPPRLPRPRPRPMKSPRP	0.328
RRIRSRPPRLPRPRPRPMLAPRP	0.244
RRIRSRPPRLPRPRPRPMLIPRP	-0.131
RRIRSRPPRLPRPRPRPMMEPRP	0.0765
RRIRSRPPRLPRPRPRPMMLPRP	0.15
RRIRSRPPRLPRPRPRPMMVPRP	-0.203
RRIRSRPPRLPRPRPRPMMWPRP	0.598
RRIRSRPPRLPRPRPRPMNPPRP	-0.0648
RRIRSRPPRLPRPRPRPMNQPRP	-0.0276
RRIRSRPPRLPRPRPRPMNTPRP	-0.647
RRIRSRPPRLPRPRPRPMPPPRP	0.435
RRIRSRPPRLPRPRPRPMPVPRP	0.0216
RRIRSRPPRLPRPRPRPMQGPRP	-0.181
RRIRSRPPRLPRPRPRPMRFPRP	0.378
RRIRSRPPRLPRPRPRPMRGPRP	0.944
RRIRSRPPRLPRPRPRPMRNPRP	0.628
RRIRSRPPRLPRPRPRPMRRPRP	0.732
RRIRSRPPRLPRPRPRPMRVPRP	0.691
RRIRSRPPRLPRPRPRPMSCPRP	-0.067
RRIRSRPPRLPRPRPRPMSHPRP	-0.109
RRIRSRPPRLPRPRPRPMSQPRP	-0.0303
